Assay results: patent publication US20210246209A1 (SHANGHAI JUNSHI BIOSCIENCES, published 2021)
Changes are numbered by the printed parent chain. Like-named read-outs stand apart in the source and are kept apart here. Each block holds one binder with its values, some of them ahead of it.

How the values were obtained:
[1] = biological target: T1, recombinant protein of human BTLA extracellular domain (hBTLA-ECD-FC) (human, UniProt Q7Z6A9 31-157, biotin-labeled in the FACS blocking assays (site not stated)); assay: FACS, blocking of biotin-labeled hBTLA binding to hHVEM-293F cells
T1 construct: extracellular domain; also called BTLA-Fc; biotin-labeled hBTLA; not shown: Fc of the self-constructed HX1-FC expression plasmid
T1 sequence (looked up): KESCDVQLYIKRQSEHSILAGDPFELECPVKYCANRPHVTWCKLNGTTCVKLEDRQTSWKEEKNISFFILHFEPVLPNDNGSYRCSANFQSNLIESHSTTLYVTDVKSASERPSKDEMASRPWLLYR
Method: (§1) Then the cells were mixed with previously biotin-labeled hBTLA (1 μg/mL) protein, incubated at 4° C. for 15 minutes, followed by mixing with 50 μL of chimeric antibody diluent (initial concentration: 5 μg/mL, 3-fold titration) at different concentrations, and incubating at room temperature for 30 minutes. After being washed with an FACS buffer twice, the cells were added with 100 μL of goat anti-human IgG-PE antibody, incubated for 30 minutes away from light, and assayed by FACS after two washes with an FACS buffer. The washed cells were resuspended in 4° C. buffer containing propidium iodide (PI) and 0.02% sodium azide that prevents receptor internalization and analyzed by flow cytometry. Viable cells were gated on the basis of PI positive cells being excluded from the FSC/SSC gate and their geometric mean fluorescence intensity (MFI) was measured. The data were analyzed using a sigmoidal dose-response model within PrismTM software.
The chimeric antibodies ch12, ch17, ch22 and ch27 can effectively block the binding of human BTLA to HVEM on the cell surface.

[2] = biological target: T2, human BTLA expressed on cells (human, UniProt Q7Z6A9 31-289); assay: cell-based or functional assay
[3] = biological target: T2, human BTLA expressed on cells; assay: FACS on 293F cells expressing hBTLA
Method: The humanized anti-BTLA antibodies were determined for their binding ability to hBTLA expressed on cells using cell-based flow cytometry (FACS). […] Then the cells were mixed with 50 μL of antibody diluent at different concentrations (initial concentration: 10 μg/mL, 3-fold titration), and incubated at room temperature for 30 minutes. After being washed with an FACS buffer twice, the cells were added with 100 μL of goat anti-human IgG-PE antibody, incubated for 30 minutes away from light, and assayed by FACS after two washes with an FACS buffer. The washed cells were resuspended in 4° C. buffer containing propidium iodide (PI) and 0.02% sodium azide that prevents receptor internalization and analyzed by flow cytometry. Viable cells were gated on the basis of PI positive cells being excluded from the FSC/SSC gate and their geometric mean fluorescence intensity was measured. The data were analyzed using a sigmoidal dose-response model within Prism™ software.
The humanized antibodies hu17, hu18, and hu19 can effectively bind to hBTLA on 293 cells.

[4] = biological target: T3, hBTLA (human BTLA protein coated on plates or coupled to a chip) (human, UniProt Q7Z6A9 31-157, limits assumed); assay: ELISA, hBTLA coated at 0.5 µg/mL, anti-human IgG4-HRP detection
T3 sequence (looked up): T1 sequence (looked up)
Method: (§2) The binding ability of the chimeric antibodies to hBTLA was assayed by ELISA. A 96-well microplate was coated with 0.5 μg/mL hBTLA and incubated at 37° C. for 60 minutes. The solution in wells was then discarded, and the wells were washed 3 times with washing buffer, and blocked for 60 minutes with PBS containing 2% BSA. After being washed 3 times with washing buffer, the wells were added with gradiently-diluted antibodies, incubated at 37° C. for 60 minutes, and washed 3 times with washing buffer before adding a HRP-labeled mouse anti-human IgG4 secondary antibody diluted at 1:10000. The mixture was incubated at 37° C. for 1 hour, washed three times with washing buffer, and added with 100 μL of TMB substrate solution for color development at room temperature for 30 minutes, then the reaction was stopped with 100 μL of 2M hydrochloric acid solution and the absorbance was read at 450 nm.
The chimeric antibodies ch7, ch12, ch17, ch22 and ch27 can specifically bind to hBTLA.

[5] = biological target: T1, recombinant protein of human BTLA …; assay: FACS, blocking of biotin-labeled hBTLA binding to hHVEM-293F cells; remark: listed apart in the source
Method: as §1, with “humanized” for “chimeric”, “intensity” for “intensity (MFI)”, “Prism™” for “PrismTM”
The […] antibodies hu17, hu18, and hu19 can effectively block the binding of human BTLA to HVEM on the cell surface.

murine BTLA = biological target: T4, murine BTLA (murine, UniProt Q7TSA3 30-183, limits assumed); assay: sheet shows OD:450nm against Log:ng/mL (ELISA-type readout); the text describes a Fortebio/biosensor assay with BTLA coupled to a chip
T4 sequence (looked up): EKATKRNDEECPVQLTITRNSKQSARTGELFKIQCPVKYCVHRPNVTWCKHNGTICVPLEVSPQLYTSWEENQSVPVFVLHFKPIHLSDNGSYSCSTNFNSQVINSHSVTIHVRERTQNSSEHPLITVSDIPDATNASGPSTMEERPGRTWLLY

[6] = biological target: T1, recombinant protein of human BTLA …; assay: SPR, Biacore T200, BTLA-Fc amine-coupled to chip, antibody as analyte, 1:1 fit
Method: The assay was carried out using a Biacore T200 instrument (GE Healthcare). Series S CMS chip was loaded on the instrument and the system buffer used was HBS-EP+(10 mM HEPES, pH 7.4, 150 mM NaCl, 3 mM EDTA, 0.05% surfactant P20). The BTLA-Fc antigens were coupled in a chip detection channel: injecting a mixed solution of 400 mM EDC and 100 mM NHS at 10 μL/min for 420 s to activate the surface of the chip, diluting the BTLA-Fc antigens in a 10 mM sodium acetate/acetic acid (pH 5.5) buffer to a final concentration of 20 μg/mL and injecting at 10 μL/min for coupling, and injecting a 1M ethanolamine-hydrochloric acid solution (pH 8.5) at 10 μL/min for 420 s for blocking.
Antibodies were diluted in a 2-fold gradient with Biacore system buffer for a total of 6 concentration points. Concentration gradients were 24 nM, 12 nM, 6 nM, 3 nM, 1.5 nM and 0.75 nM, with 24 nM being a replicate. Data were analyzed using Biacore T200 Evaluation Software (version no. 3.0, GE Healthcare). Data were fitted using a model of 1:1 Binding. The kinetic constants of the binding of the antibodies to the antigens, namely, the association rate constant ka (1/Ms), dissociation rate constant kd (1/s) and the affinity constant kd (M), were obtained by fitting, and the results are shown in Table 8.

[7] = biological target: T3, hBTLA (human BTLA protein coated on …); assay: ELISA, hBTLA coated at 0.5 µg/mL, anti-human IgG4-HRP detection; remark: listed apart in the source
Method: as §2, with “specificity” for “ability”, “humanized” for “chimeric”, “determined” for “assayed”, “conventional ELISA method.” for “ELISA.”
The humanized antibodies hu17, hu18, and hu19 can specifically bind to hBTLA.

[8] = biological target: recombinant human FcγRIIIA (CD16a) V176 (human) (UniProt P08637); assay: SPR, Biacore T200, Fc receptor captured by anti-His antibody, antibody injected; IgG4 subtype (hu18), kinetics N/A
[9] = biological target: recombinant human FcRn (human) (UniProt P55899); assay: SPR, Biacore T200, Fc receptor captured by anti-His antibody, antibody injected
[10] = biological target: recombinant human FcγRI (CD64) (human) (UniProt P12314); assay: as above
[11] = biological target: recombinant human FcγRIIIA (CD16a) V176 (human) (UniProt P08637); assay: as above

recombinant human FcγRI (CD64) (human), sequence (P12314 16-288 limits assumed): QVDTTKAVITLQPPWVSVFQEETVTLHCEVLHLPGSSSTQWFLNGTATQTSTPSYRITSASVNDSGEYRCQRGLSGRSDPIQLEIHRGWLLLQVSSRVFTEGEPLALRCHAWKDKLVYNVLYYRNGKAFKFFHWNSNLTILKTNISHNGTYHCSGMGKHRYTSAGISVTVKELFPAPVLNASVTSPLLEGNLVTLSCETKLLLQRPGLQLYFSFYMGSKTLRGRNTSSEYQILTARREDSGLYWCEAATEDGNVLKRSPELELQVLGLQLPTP
recombinant human FcγRIIIA (CD16a) V176 (human), sequence (P08637 17-208 F176V limits assumed): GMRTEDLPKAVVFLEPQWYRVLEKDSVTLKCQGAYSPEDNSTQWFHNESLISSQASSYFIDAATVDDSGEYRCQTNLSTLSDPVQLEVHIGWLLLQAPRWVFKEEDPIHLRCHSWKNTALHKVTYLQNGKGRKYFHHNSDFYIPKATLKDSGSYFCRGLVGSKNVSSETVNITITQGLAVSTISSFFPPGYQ

IC50 [1]: 0.0772 µg/mL | EC50 (luciferase reporter, T cell activation) [2]: 0.139 µg/mL | EC50 [3]: 0.0881 µg/mL | EC50 [4]: 0.0094 µg/mL | IC50 [5]: 0.157 µg/mL
B1: chimeric antibody ch12 (antibody, human IgG4, V domains shown)
VH: EVQLQQSGADLVKPGASVKLSCTASGFNFKHTYAHWVKQRPEQGLEWIGRIDPANGNTKYDPKFQGKATMTADTASNAAFLQLSSLTSEDTAVYYCVADHYGSSLLDYWGQGTSLTVSS
VL: EVVMTQTPLTLSVTIGQSASISCKSSQSLLDSDGKTYLNWFLQRPGQSPKRLMHLVSKLDSGVPDRFTGSGSGTDFTLKISGVEAEDLGVYYCWQGTYFPYTFGGGTKLETK
notes: T0010 gives only CDR numbers (HCDR 13-15, LCDR 10-12)

IC50 [1]: 0.0695 µg/mL | EC50 [4]: 0.0052 µg/mL
B2: chimeric antibody ch27 (antibody, human IgG4, V domains shown)
VH: EVHLQQSGTELMKPGASVKLSCTASGLNIRDTYMHWVKQRPEQGLEWIGRIDPANGNTKFDPKFQGKATLTSDTSSNTAYLHFSSLTSEDAAVYYCVSDHYGSSLLDYWGQGTSLTVSS
VL: B1 VL
notes: T0010 gives only CDR numbers (HCDR 28-30, LCDR 10-12)

IC50 [1]: 0.0761 µg/mL | EC50 [4]: 0.0298 µg/mL
B3: chimeric antibody ch17 (antibody, human IgG4, V domains shown)
VH: EVQLQQSGADLVKPGASVKLSCTASGFNIKDTYVHWVKQRPEQGLEWIGRIDPANGHTKFDPKFQGKATITADTSSNTANLQISSLTSEDTAVYYCVSDYYGSSLLDYWGQGTTLTVSS
VL: B1 VL
notes: T0010 gives only CDR numbers (HCDR 19-21, LCDR 10-12)

EC50 [4]: 0.0066 µg/mL
B4: chimeric antibody ch7 (antibody, human IgG4, V domains shown)
VH: EVQLQQSGAELVKPGASVKLSCTVSGFNIKDSYIHWVKQRPEQGLEWIGRIDPANGNTKYDPKFRGKATITADASSNTAALQVSSLTSEDTAVYFCVGDHYGSSLFDYWGHGTTLTVSS
VL: B1 VL
notes: T0010 gives only CDR numbers (HCDR 4-6, LCDR 10-12)

IC50 [1]: 0.0757 µg/mL | EC50 [4]: 0.0373 µg/mL
B5: chimeric antibody ch22 (antibody, human IgG4, V domains shown)
VH: B3 VH with D10E, K13R, A24V, F60Y, F64L, K67T, N80Y, I83L, V97A, S98T
VL: B1 VL
notes: T0010 gives only CDR numbers (HCDR 25-27, LCDR 10-12)

binding result (murine BTLA): no binding (tested: 1000 ng/mL) | EC50 (luciferase reporter, T cell activation) [2]: 0.257 µg/mL | EC50 [3]: 0.0967 µg/mL | Kd [6]: 0.186 nM | koff [6]: 0.000116 s⁻¹ | kon [6]: 624000 M⁻¹ s⁻¹ | EC50 [7]: 0.0063 µg/mL | IC50 [5]: 0.143 µg/mL
B6: humanized antibody hu17 (antibody, V domains shown)
VH: QVQLVQSGAEVKKPGASVKLSCKASGYNFKHTYAHWVRQAPGQGLEWIGRIDPANGNTKYDPKFQGRATMTADTASNTAYLELSSLRSEDTAVYYCVADHYGSSLLDYWGQGTLVTVSS
VL: DIVMTQTPLSLSVTPGQPASISCKSSQSLLDSDGKTYLNWFQQRPGQSPRRLIYLVSKLDSGVPDRFSGSGSGTDFTLKISRVEAEDVGVYYCWQGTYFPYTFGQGTKLEIK
notes: also called hull [sic]; humanized antibody 17

EC50 (luciferase reporter, T cell activation) [2]: 0.29 µg/mL | EC50 [3]: 0.0951 µg/mL | EC50 [7]: 0.0066 µg/mL | IC50 [5]: 0.162 µg/mL
B7: humanized antibody hu19 (antibody, V domains shown)
VH: B6 VH
VL: B6 VL with I53M, Y54H
notes: It was detected with an anti-human IgG4 secondary antibody

Kd [8]: 60200 nM | EC50 (luciferase reporter, T cell activation) [2]: 0.277 µg/mL | EC50 [3]: 0.0893 µg/mL | Kd [6]: 0.136 nM | koff [6]: 8.67e-05 s⁻¹ | kon [6]: 639000 M⁻¹ s⁻¹ | EC50 [7]: 0.0054 µg/mL | Kd [9]: 138 nM | koff [9]: 0.0708 s⁻¹ | kon [9]: 512000 M⁻¹ s⁻¹ | Kd [10]: 18.4 nM | koff [10]: 0.00387 s⁻¹ | kon [10]: 210000 M⁻¹ s⁻¹ | fold weaker than the control antibody of the IgG1 subtype (hu18-IgG1) [11]: 400 fold | IC50 [5]: 0.172 µg/mL
B8: humanized antibody hu18 (antibody, IgG4, V domains shown)
VH: B6 VH
VL: B6 VL with I2V
notes: also called JS004; recombinant human anti-BTLA antibody
